US20220275059A1 (HARBOUR ANTIBODIES, published 2022)
“And” between values parts separate entries of the source, which are not always exact repeats. Equal values may be shown once.

What was measured:
[1] = target: T1, MERS-S1^B domain (receptor binding domain) (MERS-CoV EMC isolate, UniProt K9N5Q8 358-588); experiment: see FIGS. 5(A) and 29(A)
[2] = target: T1, MERS-S1^B domain (receptor binding …); experiment: see FIG. 5A
[3] = target: T2, MERS-CoV S S1 subunit (MERS-S1) (MERS-CoV EMC isolate, UniProt K9N5Q8 19-748); experiment: MERS-S1 specific ELISA
[4] = target: T3, NL63 coronavirus spike protein (HCoV-NL63, UniProt Q6Q1S2 16-1291); experiment: ELISA on NL63 Secto
T3 sequence: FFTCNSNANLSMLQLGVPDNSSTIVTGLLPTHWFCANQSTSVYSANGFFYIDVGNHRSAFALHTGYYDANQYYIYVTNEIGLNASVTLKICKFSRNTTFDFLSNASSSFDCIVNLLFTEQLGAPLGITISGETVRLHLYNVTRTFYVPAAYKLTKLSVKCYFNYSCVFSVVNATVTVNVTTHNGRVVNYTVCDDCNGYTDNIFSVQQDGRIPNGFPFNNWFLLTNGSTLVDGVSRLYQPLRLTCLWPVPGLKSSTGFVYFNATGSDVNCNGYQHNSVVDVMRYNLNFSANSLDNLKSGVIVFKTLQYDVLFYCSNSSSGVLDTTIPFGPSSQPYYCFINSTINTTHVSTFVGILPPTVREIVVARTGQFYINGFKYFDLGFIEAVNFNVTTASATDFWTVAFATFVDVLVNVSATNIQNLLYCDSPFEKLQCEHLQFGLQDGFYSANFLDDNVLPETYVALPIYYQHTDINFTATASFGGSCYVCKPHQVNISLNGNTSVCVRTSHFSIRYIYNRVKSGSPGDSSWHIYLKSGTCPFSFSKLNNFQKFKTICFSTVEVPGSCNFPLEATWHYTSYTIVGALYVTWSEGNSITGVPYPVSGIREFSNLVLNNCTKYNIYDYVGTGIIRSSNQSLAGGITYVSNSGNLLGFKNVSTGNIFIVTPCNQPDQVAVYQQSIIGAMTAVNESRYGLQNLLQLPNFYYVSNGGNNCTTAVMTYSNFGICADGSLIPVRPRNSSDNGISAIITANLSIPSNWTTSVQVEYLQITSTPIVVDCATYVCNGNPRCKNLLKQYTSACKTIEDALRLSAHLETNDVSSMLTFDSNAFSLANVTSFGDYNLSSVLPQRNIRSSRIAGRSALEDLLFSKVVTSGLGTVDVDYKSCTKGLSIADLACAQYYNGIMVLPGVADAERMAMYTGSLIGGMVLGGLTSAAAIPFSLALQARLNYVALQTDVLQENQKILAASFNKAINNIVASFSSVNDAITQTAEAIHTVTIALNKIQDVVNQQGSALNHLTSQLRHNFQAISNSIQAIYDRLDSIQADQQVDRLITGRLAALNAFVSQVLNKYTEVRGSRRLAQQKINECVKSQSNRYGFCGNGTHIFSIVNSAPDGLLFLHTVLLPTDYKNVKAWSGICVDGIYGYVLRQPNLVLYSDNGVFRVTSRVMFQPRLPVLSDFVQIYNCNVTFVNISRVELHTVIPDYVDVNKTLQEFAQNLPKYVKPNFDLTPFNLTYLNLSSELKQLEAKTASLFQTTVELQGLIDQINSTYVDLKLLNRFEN

[5] = target: T4, MERS-S on pseudotyped VSV particles (MERS-S carrying a 16-a.a. cytoplasmic tail truncation) (MERS-CoV, UniProt K9N5Q8 18-1337); experiment: cell-based or functional assay
[6] = target: T4, MERS-S on pseudotyped VSV particles …; experiment: cell-based or functional assay; remark: listed apart in the source
[7] = target: MERS-S2 ectodomain (MERS-S2^ecto) (MERS-CoV EMC isolate, UniProt K9N5Q8 752-1262)
peptide 11 = experiment: ELISA on coated overlapping MERS-S2 peptides, A450 [D00032 Fig. 14(B]
peptide 10 = experiment: as above
[8] = target: T2, MERS-CoV S S1 subunit (MERS-S1); experiment: ELISA on coated MERS-S1, OD450 [D]
MERS-S1^A domain = target: T5, MERS-S1^A domain (MERS-CoV EMC isolate, UniProt K9N5Q8 19-357); experiment: ELISA on coated MERS-S1^A, OD450 [D]
T5 sequence: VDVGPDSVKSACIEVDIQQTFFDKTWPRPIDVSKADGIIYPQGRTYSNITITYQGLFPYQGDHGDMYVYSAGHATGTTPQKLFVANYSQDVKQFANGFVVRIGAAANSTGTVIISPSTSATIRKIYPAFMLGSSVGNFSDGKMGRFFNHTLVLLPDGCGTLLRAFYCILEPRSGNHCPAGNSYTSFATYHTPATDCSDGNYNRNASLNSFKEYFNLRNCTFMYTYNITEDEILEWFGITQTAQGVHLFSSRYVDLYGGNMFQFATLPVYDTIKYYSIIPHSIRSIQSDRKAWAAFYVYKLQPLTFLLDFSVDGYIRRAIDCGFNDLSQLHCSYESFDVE

[9] = target: T1, MERS-S1^B domain (receptor binding …); experiment: ELISA on coated MERS-S1^B, OD450 [D]
[10] = target: T2, MERS-CoV S S1 subunit (MERS-S1); experiment: see FIG. 29A

B1: 7.7a9 (antibody, V domains shown)
VH: EVQLLESGGGSVQPGGSLRLSCEASGFTFNTYPMSWVRQAPGKGLEWVSGISGSGDRTFYEDSVKGRFTISRDNSKNTLYLQMHSLRGEDTAVYYCAKDLGGEGYWGQGTLVTVSS
VL: QAVVTQESALTTSPGETVTLTCRSSTGAVTTSNYANWVQKKPDHLFTGLIGGTNNRAPGVPARFSGSLIGDKAALTITGAQTEDEAIYFCALWYSNHSVFGGGTKLTVLG
binding result [1]: binds

B2: 7.4f3 (antibody, V domains shown)
VH: EVQLLESGGGLVQPGGSLRLSCEDSGVTFSSNPMSWVRQGPGKGLEWVSGISGSGDRTFYEDSVKGRFTISRDNSKNTLYLQMNSLRAEDTAVYYCAKDLGGEGNWGQGTLVTVSS
VL: QAVVTQESALTTSPGETVTLTCRSSTGAVTISNYANWVQEKPDHSFTGLIGGTNNRAPGVPARFSGSLIGDKAALTITGAQTEDEAIYFCALWYNNQSVFGGGTKLTVLG
binding result [2]: binds

B3: 5F1 heavy chain-only antibody (antibody, V domains shown)
VH: EVQLVESGGGLVQPGGSLRLSCAASGFTFSSYWMHWVRQAPGKGLVWVSRINSDGSSTSYADSVKGRFTISRDNAKNTLYLQMNSLRAEDTAVYYCGNPYFDYWGQGTLVTVSS
binding result [3]: binds

B4: 1.6c7 (antibody, V domains shown)
VH: QVQLQQSGPGLVKPSQTLSLTCAISGDSVSSDSAAWNWIRQSPSRGLEWLGRTYFRSKWNNHYAVSVKSRITINPDTSKNQFSLLLNPVTPEDTAVYYCARATLARGALDYWGQGTLVTVSS
VL: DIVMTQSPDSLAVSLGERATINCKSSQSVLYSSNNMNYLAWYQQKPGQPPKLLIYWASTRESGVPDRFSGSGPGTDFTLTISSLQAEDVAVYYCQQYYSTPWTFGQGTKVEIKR
binding result [4]: no binding (tested: 25.00 (no unit printed))
IC50, neutralisation of MERS-S VSV pseudovirus on Vero cells [5]: 0.367 µg/ml and 2.45 nM
IC50, MERS-S pseudovirus (human IgG1) [6]: 2.45 nM
IC50, neutralization of MERS-S pseudovirus infectivity (1.6c7 antibody, H2L2) [6]: ~0.59 µg/mL
EC50 (read off the curve) [7]: ~0.03 µg/mL
binding result (peptide 11): no binding
binding result (peptide 10): no binding
binding result [8]: no binding (tested: about 5x10^5 ng/ml)
binding result (MERS-S1^A domain): no binding (tested: about 5x10^5 ng/ml)
binding result [9]: no binding (tested: about 5x10^5 ng/ml)

B5: 7.8h1 (antibody, V domains shown)
VH: QVQLVQSGAEVKKPGASVKVSCKASGYTFTSYDINWVRQATGQGLEWMGWMNPISGNTGYAQKFQGRVTMTRNTSRSTAYMELSSLRSEDTAVYYCARGQWLFDYWGQGTLVTVSS
VL: DIQMTQSPSTLSASIGDRVTITCRASQTISSWLAWYQQKPGKAPKLLIYKASSLESGVPSRFSGSGSGTEFTLTISSLQPDDFATYYCQQYNFYSYTFGQGTKLEIRR
binding result [10]: binds
